Measured values reported in US20060263381A1.

Target: HLA-A*0201 molecule (human)
Assay: T2 cells loaded with 100 µM peptide, Brefeldin A, flow cytometry with BB7.2 at 0-8 h
Details: remark: other sources report otherwise

DC50 (time for loss of 50% of the complexes): < 2 h
Binder: YEFLWGPRA [p262 (…)]
